Assay results reported in article PMC9482650, “Quantitative fragmentomics allow affinity mapping of interactomes” (Nature Communications, 2022).

Columns and labels:
Assay in all cases: holdup assay
Parameters in all cases: key: below the threshold = too weak to quantify, mostly under pKd 3.1 to 4
Conditions in all cases: plain residues with an end cap or a label only (N-terminal biotin on a linker: ado-ado)
AHNAK1, Q09666 = target: AHNAK1, Q09666
ARHGEF12, Q9NZN5-2 = target: ARHGEF12, Q9NZN5-2
CARD11, Q9BXL7 = target: T1, CARD11, Q9BXL7
T1 sequence (Q9BXL7 662-765, limits assumed, looked up): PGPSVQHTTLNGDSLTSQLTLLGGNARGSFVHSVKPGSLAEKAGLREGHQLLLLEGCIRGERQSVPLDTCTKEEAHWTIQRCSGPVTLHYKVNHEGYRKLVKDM

DLG2_3, Q15700 = target: DLG2_3, Q15700
HTRA3, P83110 = target: T2, HTRA3, P83110
T2 sequence (P83110 354-453, limits assumed, looked up): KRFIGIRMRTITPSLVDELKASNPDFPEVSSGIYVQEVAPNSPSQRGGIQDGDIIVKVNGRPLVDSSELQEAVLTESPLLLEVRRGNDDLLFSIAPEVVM

HTRA4, P83105 = target: T3, HTRA4, P83105
T3 sequence (P83105 378-476, limits assumed, looked up): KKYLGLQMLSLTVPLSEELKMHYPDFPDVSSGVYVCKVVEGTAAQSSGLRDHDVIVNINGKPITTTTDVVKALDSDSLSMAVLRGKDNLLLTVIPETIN

IL16_1, Q14005 = target: IL16_1, Q14005
Inadl_3, Q8NI35 = target: Inadl_3, Q8NI35
Inadl_4, Q8NI35 = target: Inadl_4, Q8NI35
Inadl_9, Q8NI35 = target: Inadl_9, Q8NI35
LNX2_3, Q8N448 = target: T4, LNX2_3, Q8N448
T4 sequence (Q8N448 463-564, limits assumed, looked up): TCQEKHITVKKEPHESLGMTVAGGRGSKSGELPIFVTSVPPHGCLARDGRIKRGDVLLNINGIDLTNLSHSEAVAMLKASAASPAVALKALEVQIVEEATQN

MAGI2_5, Q86UL8 = target: MAGI2_5, Q86UL8
MAST1, Q9Y2H9 = target: MAST1, Q9Y2H9
MPP7, Q5T2T1 = target: T5, MPP7, Q5T2T1
T5 sequence (Q5T2T1 134-230, limits assumed, looked up): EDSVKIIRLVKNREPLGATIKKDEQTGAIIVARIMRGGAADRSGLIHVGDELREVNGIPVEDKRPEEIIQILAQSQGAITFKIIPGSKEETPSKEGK

NHERF2_2, Q15599 = target: NHERF2_2, Q15599
NHERF4_1, Q86UT5-2 = target: NHERF4_1, Q86UT5-2
NOS1, P29475 = target: NOS1, P29475
PARD3B_1, Q8TEW8 = target: T6, PARD3B_1, Q8TEW8
T6 sequence (Q8TEW8 196-299, limits assumed, looked up): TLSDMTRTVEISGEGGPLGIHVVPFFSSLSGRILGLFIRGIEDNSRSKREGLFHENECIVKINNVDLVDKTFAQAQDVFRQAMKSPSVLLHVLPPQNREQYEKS

PARD3_3, Q8TEW0 = target: PARD3_3, Q8TEW0
PCLO, Q9Y6V0 = target: T7, PCLO, Q9Y6V0
T7 sequence (Q9Y6V0 4491-4600, limits assumed, looked up): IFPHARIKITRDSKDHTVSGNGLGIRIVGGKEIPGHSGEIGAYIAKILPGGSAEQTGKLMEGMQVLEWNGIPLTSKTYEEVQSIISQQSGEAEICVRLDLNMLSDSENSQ

SCRIB_2, Q14160 = target: SCRIB_2, Q14160
SNTA1, Q13424 = target: T8, SNTA1, Q13424
T8 sequence (Q13424 82-180, limits assumed, looked up): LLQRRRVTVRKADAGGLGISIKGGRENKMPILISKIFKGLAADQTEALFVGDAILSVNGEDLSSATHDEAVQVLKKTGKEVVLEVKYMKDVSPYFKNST

SNTG1, Q9NSN8 = target: T9, SNTG1, Q9NSN8
T9 sequence (Q9NSN8 52-150, limits assumed, looked up): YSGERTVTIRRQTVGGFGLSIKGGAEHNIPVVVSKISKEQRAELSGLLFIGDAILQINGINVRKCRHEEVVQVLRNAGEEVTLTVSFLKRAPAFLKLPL

SNTG2, Q9NY99 = target: T10, SNTG2, Q9NY99
T10 sequence (Q9NY99 68-166, limits assumed, looked up): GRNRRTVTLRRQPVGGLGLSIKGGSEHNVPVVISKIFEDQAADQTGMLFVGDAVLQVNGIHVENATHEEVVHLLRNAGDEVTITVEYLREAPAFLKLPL

SYNJ2BP, P57105 = target: T11, SYNJ2BP, P57105
T11 sequence (P57105 8-110, limits assumed, looked up): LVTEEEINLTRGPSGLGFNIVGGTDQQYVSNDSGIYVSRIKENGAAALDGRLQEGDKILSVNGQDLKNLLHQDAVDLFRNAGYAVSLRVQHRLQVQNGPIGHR

TJP1_2, Q07157 = target: TJP1_2, Q07157
Chain of TJP1_2, Q07157 (Q07157 181-274): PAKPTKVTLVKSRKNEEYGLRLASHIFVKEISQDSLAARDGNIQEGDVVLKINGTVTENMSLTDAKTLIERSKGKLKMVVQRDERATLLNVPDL

Chain of PARD3_3, Q8TEW0 (Q8TEW0 582-685): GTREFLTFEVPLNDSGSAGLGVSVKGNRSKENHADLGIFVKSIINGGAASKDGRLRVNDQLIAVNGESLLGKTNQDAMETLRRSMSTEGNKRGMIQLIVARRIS
Chain of ARHGEF12, Q9NZN5-2 (Q9NZN5 other isoform, or with tags, fused parts or gaps): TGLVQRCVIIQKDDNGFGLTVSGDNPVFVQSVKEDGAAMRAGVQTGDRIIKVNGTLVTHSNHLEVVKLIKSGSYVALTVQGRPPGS
Chain of NHERF2_2, Q15599 (Q15599 142-238): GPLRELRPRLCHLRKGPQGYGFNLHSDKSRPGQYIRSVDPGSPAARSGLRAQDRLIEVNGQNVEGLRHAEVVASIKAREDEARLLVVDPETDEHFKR
Chain of AHNAK1, Q09666 (Q09666 4-100): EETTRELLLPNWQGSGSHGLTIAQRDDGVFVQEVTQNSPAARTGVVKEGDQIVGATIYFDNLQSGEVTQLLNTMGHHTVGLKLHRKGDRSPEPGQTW
Chain of MAGI2_5, Q86UL8 (Q86UL8 915-1017): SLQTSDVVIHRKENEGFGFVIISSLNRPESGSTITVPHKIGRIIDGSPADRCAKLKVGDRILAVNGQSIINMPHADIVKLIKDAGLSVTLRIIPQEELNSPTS
Chain of Inadl_4, Q8NI35 (Q8NI35 547-651): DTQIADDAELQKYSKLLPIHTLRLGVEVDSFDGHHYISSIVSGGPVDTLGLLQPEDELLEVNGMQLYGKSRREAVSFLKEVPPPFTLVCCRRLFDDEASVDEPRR
Chain of Inadl_3, Q8NI35 (Q8NI35 359-469): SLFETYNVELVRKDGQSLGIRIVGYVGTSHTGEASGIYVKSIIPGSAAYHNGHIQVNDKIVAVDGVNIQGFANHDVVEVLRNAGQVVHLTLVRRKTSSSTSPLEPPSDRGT
Chain of IL16_1, Q14005 (Q14005 210-306): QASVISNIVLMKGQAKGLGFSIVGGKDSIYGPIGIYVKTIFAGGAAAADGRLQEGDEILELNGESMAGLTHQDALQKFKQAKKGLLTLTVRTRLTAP
Chain of NHERF4_1, Q86UT5-2 (Q86UT5 other isoform, or with tags, fused parts or gaps): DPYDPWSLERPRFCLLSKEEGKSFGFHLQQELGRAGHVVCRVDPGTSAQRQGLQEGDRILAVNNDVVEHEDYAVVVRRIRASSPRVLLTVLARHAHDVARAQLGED
Chain of Inadl_9, Q8NI35 (Q8NI35 1530-1615): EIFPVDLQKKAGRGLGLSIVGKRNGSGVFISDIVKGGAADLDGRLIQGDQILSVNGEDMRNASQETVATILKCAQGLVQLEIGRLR
Chain of SCRIB_2, Q14160 (Q14160 857-960): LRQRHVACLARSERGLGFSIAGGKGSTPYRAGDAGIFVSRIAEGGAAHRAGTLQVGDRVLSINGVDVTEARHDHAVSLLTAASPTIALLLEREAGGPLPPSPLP
Chain of MAST1, Q9Y2H9 (Q9Y2H9 962-1065): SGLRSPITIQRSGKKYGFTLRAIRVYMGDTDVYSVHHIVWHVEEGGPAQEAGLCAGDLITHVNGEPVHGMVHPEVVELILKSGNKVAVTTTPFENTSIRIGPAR
Chain of NOS1, P29475 (P29475 9-101): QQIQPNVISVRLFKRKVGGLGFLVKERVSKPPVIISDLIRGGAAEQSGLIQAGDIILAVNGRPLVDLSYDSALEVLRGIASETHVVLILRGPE

Row | Binder | pKd (AHNAK1, Q09666) | pKd (ARHGEF12, Q9NZN5-2) | pKd (CARD11, Q9BXL7) | pKd (DLG2_3, Q15700) | pKd (HTRA3, P83110) | pKd (HTRA4, P83105) | pKd (IL16_1, Q14005) | pKd (Inadl_3, Q8NI35) | pKd (Inadl_4, Q8NI35) | pKd (Inadl_9, Q8NI35) | pKd (LNX2_3, Q8N448) | pKd (MAGI2_5, Q86UL8) | pKd (MAST1, Q9Y2H9) | pKd (MPP7, Q5T2T1) | pKd (NHERF2_2, Q15599) | pKd (NHERF4_1, Q86UT5-2) | pKd (NOS1, P29475) | pKd (PARD3B_1, Q8TEW8) | pKd (PARD3_3, Q8TEW0) | pKd (PCLO, Q9Y6V0) | other results
1 | PSDSVGKDVF [EGLN1, Q9GZT9] | below the threshold | below the threshold | below the threshold | 3.57 | below the threshold | below the threshold | below the threshold | below the threshold | below the threshold | below the threshold | below the threshold | below the threshold | below the threshold | below the threshold | below the threshold | below the threshold | below the threshold | 3.5 | below the threshold | below the threshold | pKd (SCRIB_2, Q14160): below the threshold; pKd (SNTA1, Q13424): below the threshold; pKd (SNTG1, Q9NSN8): below the threshold; pKd (SNTG2, Q9NY99): below the threshold; pKd (SYNJ2BP, P57105): below the threshold; pKd (TJP1_2, Q07157): below the threshold
2 | VYEVPVETKF [SLC26A3, P40879] | below the threshold | below the threshold | below the threshold | 3.74 | below the threshold | below the threshold | below the threshold | below the threshold | below the threshold | below the threshold | below the threshold | 3.71 | 5.07 | below the threshold | 5.04 | 3.67 | 3.72 | 4.19 | below the threshold | below the threshold | pKd (SCRIB_2, Q14160): 3.67; pKd (SNTA1, Q13424): below the threshold; pKd (SNTG1, Q9NSN8): below the threshold; pKd (SNTG2, Q9NY99): below the threshold; pKd (SYNJ2BP, P57105): 3.57; pKd (TJP1_2, Q07157): below the threshold

Further lines, with some results ahead:

Row | pKd (AHNAK1, Q09666) | pKd (ARHGEF12, Q9NZN5-2) | pKd (CARD11, Q9BXL7) | pKd (DLG2_3, Q15700) | pKd (HTRA3, P83110) | pKd (HTRA4, P83105) | pKd (IL16_1, Q14005) | pKd (Inadl_3, Q8NI35) | pKd (Inadl_4, Q8NI35) | pKd (Inadl_9, Q8NI35) | pKd (LNX2_3, Q8N448) | pKd (MAGI2_5, Q86UL8) | pKd (MAST1, Q9Y2H9) | pKd (MPP7, Q5T2T1) | pKd (NHERF2_2, Q15599) | pKd (NHERF4_1, Q86UT5-2) | pKd (NOS1, P29475) | pKd (PARD3B_1, Q8TEW8) | pKd (PARD3_3, Q8TEW0) | pKd (PCLO, Q9Y6V0) | Binder | other results
3 | below the threshold | 3.65 | below the threshold | below the threshold | 4.84 | below the threshold | 3.72 | 4.14 | below the threshold | 4.56 | below the threshold | below the threshold | below the threshold | 4.92 | below the threshold | below the threshold | 4.11 | 4.17 | 4.59 | below the threshold | QKNKDREYYV [NRXN3, Q9HDB5] | pKd (SCRIB_2, Q14160): below the threshold; pKd (SNTA1, Q13424): 3.8; pKd (SNTG1, Q9NSN8): 3.58; pKd (SNTG2, Q9NY99): 3.5; pKd (SYNJ2BP, P57105): below the threshold; pKd (TJP1_2, Q07157): 3.57
4 | below the threshold | 5.37 | below the threshold | 4.38 | below the threshold | below the threshold | below the threshold | below the threshold | below the threshold | below the threshold | below the threshold | 3.84 | 4.81 | below the threshold | 4.36 | 4.28 | 3.75 | 4.24 | below the threshold | below the threshold | THREVKFTSL [CD46, P15529] | pKd (SCRIB_2, Q14160): 3.67; pKd (SNTA1, Q13424): 4.17; pKd (SNTG1, Q9NSN8): below the threshold; pKd (SNTG2, Q9NY99): 4.05; pKd (SYNJ2BP, P57105): 4.59; pKd (TJP1_2, Q07157): below the threshold
